Results: article PMC3935945, “Insight into Highly Conserved H1 Subtype-Specific Epitopes in Influenza Virus Hemagglutinin” (PLoS ONE, 2014)
Where a chain is given by its changes, count along the chain named.

Legend:
Experiment in all cases: ELISA
[1] = target: T1, recombinant hemagglutinin (HA) of 2009 pandemic virus A/Korea/01/2009 (KR01) (Influenza A virus A/Korea/01/2009 (H1N1), strain); settings: both partners purified
T1 construct: also called KR01 HA; H1N1 HA

[2] = target: T2, hemagglutinin (HA) of H1N1 A/Thailand/CU44/2006 (CU44) (Influenza A virus A/Thailand/CU44/2006 …, UniProt A7LI25, strain); settings: both partners purified
T2 construct: also called CU44 HA

[3] = target: T3, HA from A/California/07/2009(H1N1) (Influenza A virus A/California/07/2009 …, UniProt C3W5X2, strain)
T3 construct: also called CA07

[4] = target: T4, HA from A/Brisbane/59/2007(H1N1) (Influenza A virus A/Brisbane/59/2007 …, UniProt D5F1Q8, strain)
T4 construct: also called BR59

[5] = target: T5, HA from A/California/04/2009(H1N1) (Influenza A virus A/California/04/2009 …, UniProt C3W5S1, strain)
T5 construct: also called CA04

Measured: binding result

B1: H1-specific monoclonal antibody GC0587 (antibody, V domains shown)
VH: VKLQQSGGGVVQPGGSLRLSCAASGFTFSDYDMSWIRQAPGKGLEWVSGILGGSERSYYRDSVKGRFTISRDNSRKTLYLQMNSLRAEDTAVYYCARHGSPGYTLYAWDYWGQGTMVTVSS
VL: DIQMTQSPASLAVSPGQRATITCRASESVSNYGINFINWFQQKPGQPPKLLIYTASNKGTGVPARFSGSGSGTDFTLTINPVEAEDTANYFCQQTKEVPYTFGGGTKLEIK
notes: copies: 2 + 2
binds: all assays above

B2: H1-specific monoclonal antibody GC0757 (antibody, V domains shown)
VH: VKLQESGAVVQPGGSLRLSCAASGFTGSDYDMSWIRQAPGKGLEWVSGILGGSERSYYRDSVKGRSTISRDNSRKTLYLEMNSLRAEDTAVYYCARHSWGAYVQYGMDGWGQGTTVTVSS
VL: B1 VL with T101G, F102T, G103F
notes: copies: 2 + 2
binds: all assays above
